Experimental data reported in patent US20220023420A1 (PRECIGEN, published 2022).

B1: Anti-PD-1 (nVL1-nVH3).IgG4 (antibody, V domains shown)
VH: QVQLVESGGGVVQPGRSLRLDCKASGITFSNSGMHWVRQAPGKGLEWVAVIWYDGSKRYYADSVKGRFTISRDNSKNTLFLQMNSLRAEDTAVYYCATNNDYWGQGTLVTVSS
VL: EIVMTQSPATLSLSPGERATLSCRASQSVSSYLAWYQQKPGQAPRLLIYDASNRATGIPARFSGSGSGTDFTLTISSLEPEDFAVYYCQQYNNWPRTFGQGTKVEIK
notes: IgG4
B2: Anti-PD-1 (nVL1-nVH3).IgG4(S108P) (antibody, V domains shown)
VH: QVQLVESGGGVVQPGRSLRLDCKASGITFSNSGMHWVRQAPGKGLEWVAVIWYDGSKRYYADSVKGRFTISRDNSKNTLFLQMNSLRAEDTAVYYCATNNDYWGQGTLVTVSS
VL: EIVMTQSPATLSLSPGERATLSCRASQSVSSYLAWYQQKPGQAPRLLIYDASNRATGIPARFSGSGSGTDFTLTISSLEPEDFAVYYCQQYNNWPRTFGQGTKVEIK
notes: IgG4 with S108P
B3: Anti-PD-1 (VL5-VH6).IgG4 (antibody, V domains shown)
VH: QVQLVESGGGVVQPGRSLRLDCKASGITFSNSGMHWVRQAPGKGLEWVAVIWYDGSKRYYADSVKGRFTISRDNSKNTLFLQMNSLRAEDTAVYYCATNDDYWGQGTLVTVSS
VL: EIVLTQSPATLSLSPGERATLSCRASQSVSSYLAWYQQKPGQAPRLLIYDASNRATGIPARFSGSGSGTDFTLTISSLEPEDFAVYYCQQSSNWPRTFGQGTKVEIK
B4: Anti-PD-1(VH7-VL6) IgG4-TGFβRII (other)
heavy: QVQLVQSGVEVKKPGASVKVSCKASGYTFTNYYMYWVRQAPGQGLEWMGGINPSNGGTNFNEKFKNRVTLTTDSSTTTAYMELKSLQFDDTAVYYCARRDYRFDMGFDYWGQGTTVTVSSASTKGPSVFPLAPCSRSTSESTAALGCLVKDYFPEPVTVSWNSGALTSGVHTFPAVLQSSGLYSLSSVVTVPSSSLGTKTYTCNVDHKPSNTKVDKRVESKYGPPCPSCPAPEFLGGPSVFLFPPKPKDTLMISRTPEVTCVVVDVSQEDPEVQFNWYVDGVEVHNAKTKPREEQFNSTYRVVSVLTVLHQDWLNGKEYKCKVSNKGLPSSIEKTISKAKGQPREPQVYTLPPSQEEMTKNQVSLTCLVKGFYPSDIAVEWESNGQPENNYKTTPPVLDSDGSFFLYSRLTVDKSRWQEGNVFSCSVMHEALHNHYTQKSLSLSPGKGGGGSGGGGSIPPHVQKSVNNDMIVTDNNGAVKFPQLCKFCDVRFSTCDNQKSCMSNCSITSICEKPQEVCVAVWRKNDENITLETVCHDPKLPYHDFILEDAASPKCIMKEKKKPGETFFMCSCSSDECNDNIIFSEEYNTSNPD
light: EIVLTQSPATLSLSPGERATLSCRASKGVSTSGYSYLHWYQQKPGQAPRLLIYLASYLESGVPARFSGSGSGTDFTLTISSLEPEDFAVYYCQHSRDLPLTFGGGTKVEIKRTVAAPSVFIFPPSDEQLKSGTASVVCLLNNFYPREAKVQWKVDNALQSGNSQESVTEQDSKDSTYSLSSTLTLSKADYEKHKVYACEVTHQGLSSPVTKSFNRGEC
B5: Anti-PD-1 (nVL1-nVH3).IgG4-TGFbRII (other)
heavy (part 1 of 2): QVQLVESGGGVVQPGRSLRLDCKASGITFSNSGMHWVRQAPGKGLEWVAVIWYDGSKRYYADSVKGRFTISRDNSKNTLFLQMNSLRAEDTAVYYCATNNDYWGQGTLVTVSS
heavy (part 2 of 2): GGGGSGGGGSIPPHVQKSVNNDMIVTDNNGAVKFPQLCKFCDVRFSTCDNQKSCMSNCSITSICEKPQEVCVAVWRKNDENITLETVCHDPKLPYHDFILEDAASPKCIMKEKKKPGETFFMCSCSSDECNDNIIFSEEYNTSNPD
VL: EIVMTQSPATLSLSPGERATLSCRASQSVSSYLAWYQQKPGQAPRLLIYDASNRATGIPARFSGSGSGTDFTLTISSLEPEDFAVYYCQQYNNWPRTFGQGTKVEIK
B6: Anti-PD-1 (nVL1-nVH7).IgG4-TGFbRII (other)
heavy (part 1 of 2): QVQLVESGGGVVQPGRSLRLDCKASGFTFSNSGMHWVRQAPGKGLEWVAVIWYDGSKRYYADSVKGRFTISRDNSKNTLFLQMNSLRAEDTAVYYCATNNDYWGQGTLVTVSS
heavy (part 2 of 2): GGGGSGGGGSIPPHVQKSVNNDMIVTDNNGAVKFPQLCKFCDVRFSTCDNQKSCMSNCSITSICEKPQEVCVAVWRKNDENITLETVCHDPKLPYHDFILEDAASPKCIMKEKKKPGETFFMCSCSSDECNDNIIFSEEYNTSNPD
VL: EIVMTQSPATLSLSPGERATLSCRASQSVSSYLAWYQQKPGQAPRLLIYDASNRATGIPARFSGSGSGTDFTLTISSLEPEDFAVYYCQQYNNWPRTFGQGTKVEIK
B7: Anti-PD-1 (nVL1-nVH8).IgG4-TGFbRII (other)
heavy (part 1 of 2): EVQLVQSGGGVVQPGRSLRLSCAASGFTFSSYGMHWVRQAPGKGLEWVAVIWYDGSNKYYADSVKGRFTISRDNSKNTLYLQMNSLRAEDTAVYYCATNNDYWGQGTLVTVSS
heavy (part 2 of 2): GGGGSGGGGSIPPHVQKSVNNDMIVTDNNGAVKFPQLCKFCDVRFSTCDNQKSCMSNCSITSICEKPQEVCVAVWRKNDENITLETVCHDPKLPYHDFILEDAASPKCIMKEKKKPGETFFMCSCSSDECNDNIIFSEEYNTSNPD
VL: EIVMTQSPATLSLSPGERATLSCRASQSVSSYLAWYQQKPGQAPRLLIYDASNRATGIPARFSGSGSGTDFTLTISSLEPEDFAVYYCQQYNNWPRTFGQGTKVEIK
B8: Anti-PD-1 (VL5-VH6).IgG4-Linker 2 -TGFbRII (other)
heavy (part 1 of 2): QVQLVESGGGVVQPGRSLRLDCKASGITFSNSGMHWVRQAPGKGLEWVAVIWYDGSKRYYADSVKGRFTISRDNSKNTLFLQMNSLRAEDTAVYYCATNDDYWGQGTLVTVSS
heavy (part 2 of 2): GGGGSGGGSIPPHVQKSVNNDMIVTDNNGAVKFPQLCKFCDVRFSTCDNQKSCMSNCSITSICEKPQEVCVAVWRKNDENITLETVCHDPKLPYHDFILEDAASPKCIMKEKKKPGETFFMCSCSSDECNDNIIFSEEYNTSNPD
VL: EIVLTQSPATLSLSPGERATLSCRASQSVSSYLAWYQQKPGQAPRLLIYDASNRATGIPARFSGSGSGTDFTLTISSLEPEDFAVYYCQQSSNWPRTFGQGTKVEIK
B9: Anti-PD-1 (VL5-VH6).IgG4-Linker12 -TGFbRII (other)
heavy (part 1 of 2): QVQLVESGGGVVQPGRSLRLDCKASGITFSNSGMHWVRQAPGKGLEWVAVIWYDGSKRYYADSVKGRFTISRDNSKNTLFLQMNSLRAEDTAVYYCATNDDYWGQGTLVTVSS
heavy (part 2 of 2): DPVLEREDKVTTSKNPGSIPPHVQKSVNNDMIVTDNNGAVKFPQLCKFCDVRFSTCDNQKSCMSNCSITSICEKPQEVCVAVWRKNDENITLETVCHDPKLPYHDFILEDAASPKCIMKEKKKPGETFFMCSCSSDECNDNIIFSEEYNTSNPD
VL: EIVLTQSPATLSLSPGERATLSCRASQSVSSYLAWYQQKPGQAPRLLIYDASNRATGIPARFSGSGSGTDFTLTISSLEPEDFAVYYCQQSSNWPRTFGQGTKVEIK
B10: Anti-PD-1 (VL5-VH6).IgG4-Linker7 -TGFbRII (other)
heavy (part 1 of 2): QVQLVESGGGVVQPGRSLRLDCKASGITFSNSGMHWVRQAPGKGLEWVAVIWYDGSKRYYADSVKGRFTISRDNSKNTLFLQMNSLRAEDTAVYYCATNDDYWGQGTLVTVSS
heavy (part 2 of 2): DPGSGSVPLGSGSNPGSIPPHVQKSVNNDMIVTDNNGAVKFPQLCKFCDVRFSTCDNQKSCMSNCSITSICEKPQEVCVAVWRKNDENITLETVCHDPKLPYHDFILEDAASPKCIMKEKKKPGETFFMCSCSSDECNDNIIFSEEYNTSNPD
VL: EIVLTQSPATLSLSPGERATLSCRASQSVSSYLAWYQQKPGQAPRLLIYDASNRATGIPARFSGSGSGTDFTLTISSLEPEDFAVYYCQQSSNWPRTFGQGTKVEIK
B11: Anti-PD-1 (VL5-VH6).IgG4-Linker8 -TGFbRII (other)
heavy (part 1 of 2): QVQLVESGGGVVQPGRSLRLDCKASGITFSNSGMHWVRQAPGKGLEWVAVIWYDGSKRYYADSVKGRFTISRDNSKNTLFLQMNSLRAEDTAVYYCATNDDYWGQGTLVTVSS
heavy (part 2 of 2): DPGSGGSVPLGSGGSNPGSIPPHVQKSVNNDMIVTDNNGAVKFPQLCKFCDVRFSTCDNQKSCMSNCSITSICEKPQEVCVAVWRKNDENITLETVCHDPKLPYHDFILEDAASPKCIMKEKKKPGETFFMCSCSSDECNDNIIFSEEYNTSNPD
VL: EIVLTQSPATLSLSPGERATLSCRASQSVSSYLAWYQQKPGQAPRLLIYDASNRATGIPARFSGSGSGTDFTLTISSLEPEDFAVYYCQQSSNWPRTFGQGTKVEIK
B12: Anti-PD-1 (VL5-VH6).IgG4-Linker10 -TGFbRII (other)
heavy (part 1 of 2): QVQLVESGGGVVQPGRSLRLDCKASGITFSNSGMHWVRQAPGKGLEWVAVIWYDGSKRYYADSVKGRFTISRDNSKNTLFLQMNSLRAEDTAVYYCATNDDYWGQGTLVTVSS
heavy (part 2 of 2): DPGVLEREDVPTTSYPNPGSIPPHVQKSVNNDMIVTDNNGAVKFPQLCKFCDVRFSTCDNQKSCMSNCSITSICEKPQEVCVAVWRKNDENITLETVCHDPKLPYHDFILEDAASPKCIMKEKKKPGETFFMCSCSSDECNDNIIFSEEYNTSNPD
VL: EIVLTQSPATLSLSPGERATLSCRASQSVSSYLAWYQQKPGQAPRLLIYDASNRATGIPARFSGSGSGTDFTLTISSLEPEDFAVYYCQQSSNWPRTFGQGTKVEIK

These binders were tested against T1, PD-1 Fc fusion protein (UniProt Q15116 25-167, limits assumed) (assay: SPR (Biacore), PD-1-Fc antigen on CM5, 1:1 Langmuir with mass transfer).
T1 construct: also called PD-1-Fc antigen; PD-1 fused to human Fc region; not shown: human Fc region
Procedure: PD-1-Fc antigen and reference antigen was immobilized on Biacore CM5 surface. […] Kinetics data was evaluated for 1:1 model: Langmuir with mass transfer.

T1 sequence (Q15116 25-167 limits assumed): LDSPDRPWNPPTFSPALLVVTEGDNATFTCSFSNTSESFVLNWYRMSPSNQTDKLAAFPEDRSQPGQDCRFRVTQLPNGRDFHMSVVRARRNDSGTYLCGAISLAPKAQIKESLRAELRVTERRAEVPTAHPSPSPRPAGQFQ

For B1, which Kd is on record?
Its Kd is 14.8 pM.

Which Kd does the source give for B2 here?
Its Kd is 14.1 pM.

What follows are binders tested against T2, TGF-β1 (UniProt P01137 279-390) (assay: cell-based or functional assay).
T2 sequence (P01137 279-390 limits assumed): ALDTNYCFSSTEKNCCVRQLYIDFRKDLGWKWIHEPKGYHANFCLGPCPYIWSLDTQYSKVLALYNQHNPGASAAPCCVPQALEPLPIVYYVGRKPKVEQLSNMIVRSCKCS

How did the “IC50-inhibition of TGF-β1 induced reporter gene activity (HEK-Blue TGF-β cells, SEAP)” value (“IC50-inhibition” for short) turn out when B3 was run?
Its value is 9 pM.

How did the “IC50-inhibition” value turn out when B4 was run?
Its value is 5.6 pM.

Which “IC50-inhibition” value does the source give for B5 here?
The value was 10.7 pM.

For B6, which “IC50-inhibition” value is on record?
Its value is 15.1 pM.

B7 was tested. Which “IC50-inhibition” value did it give?
Its value is 54.5 pM.

Biological target: T2, TGF-β1
Assay: cell-based or functional assay
Remark: another data set of the same source

B8 was tested. Which “IC50, TGF-β1 neutralization activity (HEK-Blue TGF-β reporter cells)” value (from here on “IC50, TGF-β1 neutralization activity”) did it give?
Its value is 1.2 pM.

With B9 as the binder, how does the “IC50, TGF-β1 neutralization activity” value read?
Its value is 2.7 pM.

Which “IC50, TGF-β1 neutralization activity” value does the source give for B10 here?
The value was 1.1 pM.

B11 was tested. Which “IC50, TGF-β1 neutralization activity” value did it give?
Its value is 1.2 pM.

Which “IC50, TGF-β1 neutralization activity” value does the source give for B12 here?
The value was 1.9 pM.
